“And” between values parts separate entries of the source, which are not always exact repeats. Identical values can stand only once.
B1: RIP2K^1-317 (kinase domain of human RIP2, residues 1-317) (domain or fragment)
chain: MNGEAICSALPTIPYHKLADLRYLSRGASGTVSSARHADWRVQVAVKHLHIHTPLLDSERKDVLREAEILHKARFSYILPILGICNEPEFLGIVTEYMPNGSLNELLHRKTEYPDVAWPLRFRILHEIALGVNYLHNMTPPLLHHDLKTQNILLDNEFHVKIADFGLSKWRMMSLSQSRSSKSAPEGGTIIYMPPENYEPGQKSRASIKHDIYSYAVITWEVLSRKQPFEDVTNPLQIMYSVSQGHRPVINEESLPYDIPHRARMISLIESGWAQNPDERPSFLKCLIELEPVLRTFEEITFLEAVIQLKKTKLQSV

How the values were obtained:
[1] = target: RIP2K^1-300 (kinase domain of human RIP2, residues 1-300) (human, UniProt O43353 1-300); experiment: MST
[2] = target: B1; experiment: cryo-EM structure
[3] = target: B1; experiment: native MS
[4] = target: the molecule itself; experiment: native MS
[5] = target: B1; experiment: NMR translational diffusion

binding result [1]	Binder	stoichiometry N [3]	other results
–	XIAP BIR2^154-240 (domain or fragment) YPRNPAMYSEEARLKSFQNWPDYAHLTPRELASAGLYYTGIGDQVQCFCCGGKLKNWEPCDRAWSEHRRHFPNCFFVLGRNLNIRSE	1 RIP2K per XIAP BIR2 (2:2)	Kd [1]: 85.6 ± 18.7 nM; stoichiometry N [2]: 2 RIP2K per XIAP BIR2 (2:1)
–	XIAP BIR2AG^154-240 (domain or fragment) YPRNPAMYSEEARLKSFQNWPDYAHLTPRELASAGLYYTGIGDQVQCFACGGKLKNWEPGDRAWSEHRRHFPNCFFVLGRNLNIRSE	2 RIP2K per XIAP BIR2 (2:1) and 1 RIP2K per XIAP BIR2 (2:2)	–
binds	XIAP BIR2^124-263 (domain or fragment) GPRDHFALDRPSETHADYLLRTGQVVDISDTIYPRNPAMYSEEARLKSFQNWPDYAHLTPRELASAGLYYTGIGDQVQCFCCGGKLKNWEPCDRAWSEHRRHFPNCFFVLGRNLNIRSESDAVSSDRNFPNSTNLPRNPSMA	–	–
–	B1	–	stoichiometry N [4]: 2
–	XIAP BIR2^124-240 (domain or fragment) GPRDHFALDRPSETHADYLLRTGQVVDISDTIYPRNPAMYSEEARLKSFQNWPDYAHLTPRELASAGLYYTGIGDQVQCFCCGGKLKNWEPCDRAWSEHRRHFPNCFFVLGRNLNIRSE	1 RIP2K per XIAP BIR2 (2:2) and 2 RIP2K per XIAP BIR2 (2:1)	–
–	XIAP BIR2AG^124-240 (domain or fragment) GPRDHFALDRPSETHADYLLRTGQVVDISDTIYPRNPAMYSEEARLKSFQNWPDYAHLTPRELASAGLYYTGIGDQVQCFACGGKLKNWEPGDRAWSEHRRHFPNCFFVLGRNLNIRSE	1 RIP2K per XIAP BIR2 (2:2)	stoichiometry N [5]: 2 RIP2 per BIR2 (1:2 BIR2:RIP2)
binds	XIAP BIR2^93-240 (domain or fragment) GPINGFYLENSATQSTNSGIQNGQYKVENYLGSRDHFALDRPSETHADYLLRTGQVVDISDTIYPRNPAMYSEEARLKSFQNWPDYAHLTPRELASAGLYYTGIGDQVQCFCCGGKLKNWEPCDRAWSEHRRHFPNCFFVLGRNLNIRSE	–	–
binds	XIAP BIR2^93-263 (domain or fragment) GPINGFYLENSATQSTNSGIQNGQYKVENYLGSRDHFALDRPSETHADYLLRTGQVVDISDTIYPRNPAMYSEEARLKSFQNWPDYAHLTPRELASAGLYYTGIGDQVQCFCCGGKLKNWEPCDRAWSEHRRHFPNCFFVLGRNLNIRSESDAVSSDRNFPNSTNLPRNPSMA	–	–
